Laboratory results published in the nanobody polyreactivity screen of Harvey et al. (2022).

Assay: yeast display, Sf9 membrane polyspecificity reagent, FACS + sequencing; frameworks hold sequencing errors
Procedure, shortened: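 Genes from sorted yeast were amplified by colony PCR, read by MiSeq 2 × 250 sequencing and filtered on CDR length. These cells carried a synthetic nanobody library in Saccharomyces cerevisiae BJ5465 and were sorted by FACS into low and high (top ~1%) gates on anti-HA and streptavidin fluorescence. Polyreactivity is labelled according to the gate of origin.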
For “QVQLVESGGGLVQAGGSLRLSSAASVSTVTPYAMGWYRQAPGKERELVAVISESGGSTYYADSVKGRFTISRDNAKNTVYLQMNSLKPEDTAVYYCAKASYPEVLYYFFRGYTFDSWGQGTQVTVSS”, the “polyreactivity (PSR sort gate)” value was “low polyreactivity”. In the case of “QVQLVESGGGLVQAGGSLRLSSAATGRTFASNAMGWYRQAPGKERELVAAIRYRGDRTSYADSVKGRFTISRDNAKNTVYLQMNSLKPEDTAVYYCAAYYNSHGLDYWGQGTQVNVSS”, the “polyreactivity (PSR sort gate)” value is reported as “low polyreactivity”. For “QVQLVESGGGLVQAGGSLRLSSAATGRTFASYAMGWYRPAPGKERELVAVITRGVRTYYADSVKGRFTISRDNAKNTVYLEMNSLKPEDTAVYYCAKERYNANYDTSLYDYWGQGTQVTVSS”, the “polyreactivity (PSR sort gate)” value was “low polyreactivity”. In the case of “QVQLVESGGGLVQAGGSLRLSSAAYGIIIGYYAMGWYRQPPGKERELVAAISWSGGSTYYADSVKGRFTISRDNAKNTVYLQMNSLKPEDTAVYYCAAVVRRKSGNDTWRYNYWGQGTQVTVSS”, the “polyreactivity (PSR sort gate)” value is reported as “high polyreactivity”. With “QVQLVESGGGLVQAGGSLRLSSAPSGIIIDYYAMGWYRQSPGKERELVAAITSGGSTSYADSEKGGFTISRDNAKKTVYLQMNSLKPEDTAVYYCNTEPSGYESGYWGQGTQVTVSS” the “polyreactivity (PSR sort gate)” value was “low polyreactivity”. With “QVQLVESGGGLVQAGGSLRLSSAPSGSTFPGYAMGWYRQAPGKERQLVAAITGRGTSTYYADSVKGRFTISRDNAKNTVYLQMNSLKPEDTAVYYCAPYATFPTRYYYWGQGTQVTVSS” the “polyreactivity (PSR sort gate)” value was “high polyreactivity”. With “QVQLVESGGGLVQAGGSLRLSSASSGSTFSLNAMGWYRQAPGTERELVAAISSSTGRTSYADSVKGRFTISRDNAKNTVYLQMTSLNPEDTAVYYCAADVYESLYFPYDSWRQGTQVTVSS” the “polyreactivity (PSR sort gate)” value was “low polyreactivity”. For “QVQLVESGGGLVQAGGSLRLSSGASGLTIRRYAMGWSRQAPGKEREFVATISQNGGRTYYADSVKGRFTISRDNAKNTFYLQMNSLKPEDTAVYYCAAEDWRWGYDYWGQGTQVTVSS”, the “polyreactivity (PSR sort gate)” value was “high polyreactivity”. In the case of “QVQLVESGGGLVQAGGSLRLSSGASGRIFAVYAMGWYRQAPGKERELVAAISYIGGSTYYADSVKGRFTISRDNAKNSVYLQMNSLKPEDTAVYYCATDSHDDTGAYDYWGQGTQVTVSS”, the “polyreactivity (PSR sort gate)” value is reported as “low polyreactivity”. With “QVQLVESGGGLVQAGGSLRLSSPASGFNFKSNCMGWYRQAPGKERELIADIRRSVGSTYYADYVKGRFTISRDNAKNTVYLQMNSLKPEDTSVYYCNAKYIKGRDWGQCTQVTVSS” the “polyreactivity (PSR sort gate)” value was “high polyreactivity”. With “QVQLVESGGGLVQAGGSLRLSSPASGFTFLAYAMGWYRQAPGKERELVAAISASSGRTRYADSVKGRFTISRDNAKNTVYLQMISLKPEDTAVYYCAARYRGTYRRDYWGQGTQVTVSS” the “polyreactivity (PSR sort gate)” value was “high polyreactivity”. With “QVQLVESGGGLVQAGGSLRLSSSASGGIFRSYAMGWYRQAPGKERELVATITDRGGSTYYADSVKGRFTISRDNAKNTVYLQMNSLKPEDTAVYYCAAELVNRLWYRVVHFDYWGQGPQVTVSS” the “polyreactivity (PSR sort gate)” value was “low polyreactivity”. With “QVQLVESGGGLVQAGGSLRLSSSASGRIFVYYAMGWYRQAPGKERELVAAITYSVDSTYYADSVKARFTISRDNAKNTVYLQMNSLKPEDTAVYYCATDVDWAYGYQYEYWGQGTQVTVSS” the “polyreactivity (PSR sort gate)” value was “low polyreactivity”. For “QVQLVESGGGLVQAGGSLRLSSSASGSIFDGYAMGWYRQAPGKEREFVAAIRWGDGIKYYADSVKGRFTISRDNAKNTVYLQMNSLTPEDTAVYYCAAVQHGHEPRVQDSYDYWGQGTQVTVSS”, the “polyreactivity (PSR sort gate)” value was “low polyreactivity”. With “QVQLVESGGGLVQAGGSLRLSWAASGGIFKVYGMRWYRQAPGKERELVAAISWTTGGTYYADSVKGRFTISRDNAKNTVYLQMNSLKPEDTAVYYCAAEYADSWSAFDWNYYYWGQGTQVTVSS” the “polyreactivity (PSR sort gate)” value was “high polyreactivity”. For “QVQLVESGGGLVQAGGSLRLSWAASGRIIYGYAMGWYRQAPGKERELVAAITATYYADSVKGRFTISRDNAKNTVYLQMNSLKPEDTAVYYCNAYLYPKQPLSPPDPTFEGGYWGQGTQVTVSS”, the “polyreactivity (PSR sort gate)” value was “low polyreactivity”. For “QVQLVESGGGLVQAGGSLRLTCAASASIFGHNTMGWNREAPGKERELVAAISVSGTRTYYADSVKGRFTISRVNAKNTVYLQMNSLKPEDTAVYYCAAEISRVRQGVAWSYKYEYWGQGTQVTVSS”, the “polyreactivity (PSR sort gate)” value was “high polyreactivity”. In the case of “QVQLVESGGGLVQAGGSLRLTCAASGFIFDEYAMGWYRQAPGKERELVAAISWSGSRTYYADSVKGRFTISRDNAKTTVYLQMNSLKPEDTAVYYCAKVTGVGAGRRNYWGQGTQVTVSS”, the “polyreactivity (PSR sort gate)” value is reported as “high polyreactivity”. In the case of “QVQLVESGGGLVQAGGSLRLTCAASGFIFKFYAMGWSRQAPGKEREVVAAITSSGGSTYYADSVKGRFTISRDNAKNTVYLQMNSLKPEDTAVYYCAAQFPGVYYYIYDYWGQGTQVTVSS”, the “polyreactivity (PSR sort gate)” value is reported as “high polyreactivity”. In the case of “QVQLVESGGGLVQAGGSLRLTCAASGFIFLPYAMGWYRQAPGKERELVAAITRGGRTYYADSVKGRFTISRDNAKNTVYLQMNSLKPEDTAVYYCAATTYLVWGYNYWGQGTQVTVSS”, the “polyreactivity (PSR sort gate)” value is reported as “low polyreactivity”. In the case of “QVQLVESGGGLVQAGGSLRLTCAASGFIFNHNAMGWYRQAPGKERELVAAISSGGRTYYADSVKGRFTISRDNAKNTVYLQMNSLKPEDTAVYYCAKDTKYSSQYGKYGYWGQGTQVTVSS”, the “polyreactivity (PSR sort gate)” value is reported as “low polyreactivity”. For “QVQLVESGGGLVQAGGSLRLTCAASGFIFPRYAMGWYRQAPGKERELVAAISYSGGSTYYADSVKGRFTISRDNAKNTVYLQMNSLKPEDTAVYYCNKDFPPQGQLRNMYYWGQGTQVTVSS”, the “polyreactivity (PSR sort gate)” value was “high polyreactivity”. For “QVQLVESGGGLVQAGGSLRLTCAASGFIFQNYAMGWYIQAPGKERELVSAIDFTDGSKYYADSVKGRYTISRDNAKNSVYLQMNSLKPEDTSVDYCNALDYLYGGIYLEEDYWGQGTQVTVSS”, the “polyreactivity (PSR sort gate)” value was “low polyreactivity”. For “QVQLVESGGGLVQAGGSLRLTCAASGFIFSRYTMGWYRQAPGKERELVAAISRRGGNTYYADSVKGRFTISRDNAKNTVYLQMNSLKPEDTAVYYCAADYAWPLRVTGDYWGQGTQVTVSS”, the “polyreactivity (PSR sort gate)” value was “low polyreactivity”. With “QVQLVESGGGLVQAGGSLRLTCAASGFIFTYYAMGWYRQAPGKERELVAAISSSGGRTAYADSVKGRYTISRDNAKNTVYLQMNSLKPEDTAVYYCAARIRASGGKDGYNSWGQGTQVTVSS” the “polyreactivity (PSR sort gate)” value was “high polyreactivity”. With “QVQLVESGGGLVQAGGSLRLTCAASGFIFWANAMGWYRPAPGKERELVAAIRYSGGRTYYADSVKGRYTISRDNAKNTVFLQKNSLKPEDTAVYYCAKEYKKYGGFVVENDYWGQGTQVNVSS” the “polyreactivity (PSR sort gate)” value was “low polyreactivity”. For “QVQLVESGGGLVQAGGSLRLTCAASGFILKYYAMGWYRHAPGKERHLVAAITVSGGSTYYADSVKGRFTISRDNAKNTVYLQMNSLKPEDTAVYYCNADYPRGGAGLLDYWGQCTQVTVSS”, the “polyreactivity (PSR sort gate)” value was “low polyreactivity”. For “QVQLVESGGGLVQAGGSLRLTCAASGFISSENAMGWYRQAPGKERELVAAISSGGCTNYADSVKGRFTISRDNAKNTVYLQMNSLKEEDTAVYYCAATLPGWYNEDDSWGQGTHVTVSS”, the “polyreactivity (PSR sort gate)” value was “low polyreactivity”. In the case of “QVQLVESGGGLVQAGGSLRLTCAASGFNFWDYAMGWYRQAPGKERELFAAISDSGGDTYYADSVKGRFTISRDNAKNTVYLQMNSLKPEDTAVYYCASDVELWVFRGQQYDYWGQGTQVTVSS”, the “polyreactivity (PSR sort gate)” value is reported as “low polyreactivity”. In the case of “QVQLVESGGGLVQAGGSLRLTCAASGFTFGSYVMGWYRQAPGKERELVADISIRGGSTYYADSVKGRFTISRDNAKNTVYLQMHSLKPEDTAVYYCNADPAFYYWEGIVGGADYDYWGIGTQVTVSS”, the “polyreactivity (PSR sort gate)” value is reported as “low polyreactivity”. With “QVQLVESGGGLVQAGGSLRLTCAASGFTFYLNAMGWYRQAPGKERELVAAITDDGDSTYYADSVKGRFTISRDNAKNTVYLQMNSLKPEDTAVYYCNTVYGPDLDGTEYDYWGQGTQVTVSS” the “polyreactivity (PSR sort gate)” value was “low polyreactivity”. In the case of “QVQLVESGGGLVQAGGSLRLTCAASGFTFYWYTMGWYRQAPGKERELVATISGSGGRTYYADSVKGRFTISRDNAKNTVYLQMNSLKPEDTAVYYCNAGRPYKYGYWGQGTQVTVSS”, the “polyreactivity (PSR sort gate)” value is reported as “high polyreactivity”. In the case of “QVQLVESGGGLVQAGGSLRLTCAASGGIFRPNAMGWYRPAPGKERELVASIDDGDSTNYADSVKGPFTISRDNAKNTVSLQMNSLKPEDTAVYYFAAEQGYTVIYDYWGQGSQVTVSS”, the “polyreactivity (PSR sort gate)” value is reported as “low polyreactivity”. In the case of “QVQLVESGGGLVQAGGSLRLTCAASGGISLYYVMGWYRQAPGKERELVADISGDDSTNYADSVKGRFTISRDNAKNTVYLQMNSLKPEDTAVYYCAAVPGLFYLPYDYWGQGTQVTVSS”, the “polyreactivity (PSR sort gate)” value is reported as “low polyreactivity”. With “QVQLVESGGGLVQAGGSLRLTCAASGGTFRRYTMGWYRQAPGKERELVAVISRSGGSTYYADSVKGRFTISRDNAKNTVYLQMNRLKPEDTAVYYCAVVYYNGYDWGQGTQVTVSS” the “polyreactivity (PSR sort gate)” value was “high polyreactivity”. With “QVQLVESGGGLVQAGGSLRLTCAASGIIFSYNAMGWYRQAPGKERELVAAIRWSGDSTYYADSVKGRFTISRDIAKNTVYLQMNSMKPEDTAVYYCAAEFFLSYPRYEYWGQGTQVTVSS” the “polyreactivity (PSR sort gate)” value was “low polyreactivity”. In the case of “QVQLVESGGGLVQAGGSLRLTCAASGITFGDYALGWYRQAPGKERELVAAITRRSGNTRYADSVKGRFTISRDNAKNTVYLQMNSLKPEDTAVYYCNARWFSYARGFENGYWGQGTQVTVSS”, the “polyreactivity (PSR sort gate)” value is reported as “high polyreactivity”. For “QVQLVESGGGLVQAGGSLRLTCAASGITFISYAMGWYIQAPGKERELVAAITKSGGRTYYADSVKGRFTISRDNAKKTVYLQMNSLKPEDTAVYYCAAYHLRDNRIGGGYWGQGTQVTVSS”, the “polyreactivity (PSR sort gate)” value was “high polyreactivity”. For “QVQLVESGGGLVQAGGSLRLTCAASGITFYGYAMGWYRQAPGKERELVAAISKSGGSTHYADSVKGRFTISRDNAKNTVYLQMNSLKPEDTAVYYCAAAYWTRLRRMDYWGQGTQVTVSS”, the “polyreactivity (PSR sort gate)” value was “low polyreactivity”. For “QVQLVESGGGLVQAGGSLRLTCAASGLIFARNAMGWYRQAPGKDRELVAAISSSGNTYADSVKGRFTISRDNAKNTVYLHMNSLKPEDTAVYYCNAVRRIRVTSTYDYWGQGTQVTVSS”, the “polyreactivity (PSR sort gate)” value was “high polyreactivity”. With “QVQLVESGGGLVQAGGSLRLTCAASGLIFRRYAMGWYRQAPGKERELVAAINTSGGSTYYADSVKGRFTISRDNAKNTVYLQMNSLKPEDSAVSYCNTVSPYKYDWGKGTQVTVSS” the “polyreactivity (PSR sort gate)” value was “low polyreactivity”.
